Source: PMC6529012

B1: Tp0136 of Treponema pallidum subsp. pallidum SS14 strain, expressed on the surface of B. burgdorferi B314 (natural protein)
chain: CDFTGIFAAIQSEVPIKTPSIPGAIYGLVKAGSKLYATNGRLWEKELNGTGSWQKVSSSSVPTDSDKKVMSIATDGNTFVLACVPGTGVYKHCVNGAGSSSTGTTASPSTETCSQHATLVGGTSKPFWLVPGGTGNNGNCGCGGGGGGSSSSSSSCIHIWLVPGGTGNNGNCGCGGGGGGSSSSSSSCIHIKVENTDEQFLDMGEGYVVTTKHLYTKNGSSSAGPAQCPGGGGGGGSSGGGGSSEYTKASCSFSTPILASVSDGCYHYILTKEKVYCRKQDTASSAASSPAQCPSSPSSSSSSSTNAGCEVAHGVDDPLCLAIFKHNGCEYLLIGGSRGYGEIKLEANSSGTNGTCMRLKESNVHKSPGQWGESSPTPKASAEQYRGTVGRFAVQKIYVVEKNGGGNGVAAGGAGCPANASSSSGGTSSTQRPDLYAAVGESSDTYTGLWKFDTTTCSWNRE
B2: Tp0136 of Treponema pallidum subsp. pallidum Nichols (Seattle-Nichols) strain, expressed on the surface of B. burgdorferi B314 (natural protein)
chain: B1 chain

Key:
[1] = biological target: human foreskin fibroblast fibronectin (human)
Sequence of human foreskin fibroblast fibronectin (human) (P02751 32-2477): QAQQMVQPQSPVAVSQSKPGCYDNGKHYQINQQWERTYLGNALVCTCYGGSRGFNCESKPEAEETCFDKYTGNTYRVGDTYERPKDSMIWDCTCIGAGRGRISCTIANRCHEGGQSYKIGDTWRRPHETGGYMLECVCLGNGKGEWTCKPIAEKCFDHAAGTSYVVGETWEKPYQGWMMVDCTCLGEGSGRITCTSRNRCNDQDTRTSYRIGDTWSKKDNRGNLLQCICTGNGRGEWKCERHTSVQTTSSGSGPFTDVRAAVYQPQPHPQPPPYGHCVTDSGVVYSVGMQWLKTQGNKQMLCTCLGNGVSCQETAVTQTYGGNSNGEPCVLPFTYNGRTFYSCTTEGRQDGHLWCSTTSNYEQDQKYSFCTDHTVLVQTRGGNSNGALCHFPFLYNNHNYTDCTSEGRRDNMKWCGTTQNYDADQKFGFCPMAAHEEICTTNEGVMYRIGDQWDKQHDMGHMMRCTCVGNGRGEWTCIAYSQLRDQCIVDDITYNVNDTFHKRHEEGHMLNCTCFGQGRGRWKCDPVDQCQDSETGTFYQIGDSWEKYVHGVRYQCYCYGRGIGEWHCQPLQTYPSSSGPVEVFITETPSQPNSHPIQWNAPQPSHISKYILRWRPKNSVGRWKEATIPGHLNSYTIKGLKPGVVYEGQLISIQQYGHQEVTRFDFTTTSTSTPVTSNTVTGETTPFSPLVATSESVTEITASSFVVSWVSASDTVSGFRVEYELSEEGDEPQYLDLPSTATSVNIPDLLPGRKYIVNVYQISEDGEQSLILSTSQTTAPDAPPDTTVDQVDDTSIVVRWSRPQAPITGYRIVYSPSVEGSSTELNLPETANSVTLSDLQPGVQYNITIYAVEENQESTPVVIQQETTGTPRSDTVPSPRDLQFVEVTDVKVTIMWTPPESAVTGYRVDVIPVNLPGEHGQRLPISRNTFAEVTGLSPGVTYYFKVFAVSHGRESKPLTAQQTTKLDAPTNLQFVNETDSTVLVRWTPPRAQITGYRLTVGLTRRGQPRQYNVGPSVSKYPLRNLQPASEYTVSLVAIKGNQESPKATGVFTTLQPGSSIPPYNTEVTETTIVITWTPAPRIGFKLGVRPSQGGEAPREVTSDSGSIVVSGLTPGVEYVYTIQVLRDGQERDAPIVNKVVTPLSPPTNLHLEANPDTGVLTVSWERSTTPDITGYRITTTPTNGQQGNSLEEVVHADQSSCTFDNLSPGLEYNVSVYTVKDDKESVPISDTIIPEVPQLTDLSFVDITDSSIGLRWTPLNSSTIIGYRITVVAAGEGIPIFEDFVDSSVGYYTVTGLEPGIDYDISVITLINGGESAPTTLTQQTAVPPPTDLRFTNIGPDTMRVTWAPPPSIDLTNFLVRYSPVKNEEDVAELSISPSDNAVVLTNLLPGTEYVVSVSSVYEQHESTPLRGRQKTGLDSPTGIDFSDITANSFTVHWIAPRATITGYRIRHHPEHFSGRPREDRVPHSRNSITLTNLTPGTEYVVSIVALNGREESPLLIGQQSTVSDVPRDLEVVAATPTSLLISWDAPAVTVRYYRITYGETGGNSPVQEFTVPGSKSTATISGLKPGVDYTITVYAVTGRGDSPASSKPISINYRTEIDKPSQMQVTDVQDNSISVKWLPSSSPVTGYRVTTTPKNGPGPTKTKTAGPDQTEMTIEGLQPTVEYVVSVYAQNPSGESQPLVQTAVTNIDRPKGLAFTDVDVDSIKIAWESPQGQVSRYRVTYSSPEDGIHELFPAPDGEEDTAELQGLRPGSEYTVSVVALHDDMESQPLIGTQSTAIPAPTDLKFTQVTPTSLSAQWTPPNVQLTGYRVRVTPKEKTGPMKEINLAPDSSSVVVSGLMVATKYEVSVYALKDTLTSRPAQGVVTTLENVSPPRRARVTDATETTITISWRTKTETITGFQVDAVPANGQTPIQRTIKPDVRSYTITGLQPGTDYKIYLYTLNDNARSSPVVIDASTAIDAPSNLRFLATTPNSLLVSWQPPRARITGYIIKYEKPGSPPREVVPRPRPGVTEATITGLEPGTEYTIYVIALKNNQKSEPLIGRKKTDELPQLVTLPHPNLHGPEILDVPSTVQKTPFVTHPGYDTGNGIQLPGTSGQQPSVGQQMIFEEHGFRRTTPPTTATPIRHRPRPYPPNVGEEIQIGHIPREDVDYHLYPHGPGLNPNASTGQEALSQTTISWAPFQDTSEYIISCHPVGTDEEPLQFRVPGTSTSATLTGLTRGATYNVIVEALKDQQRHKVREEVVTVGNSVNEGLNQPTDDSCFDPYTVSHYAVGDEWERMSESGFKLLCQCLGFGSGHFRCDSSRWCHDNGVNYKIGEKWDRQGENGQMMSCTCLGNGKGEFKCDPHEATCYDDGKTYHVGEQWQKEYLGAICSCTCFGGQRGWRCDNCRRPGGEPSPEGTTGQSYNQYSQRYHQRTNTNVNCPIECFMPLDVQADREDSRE

[2] = biological target: human foreskin fibroblast fibronectin (human); remark: listed apart in the source

Binder | reduction by FnbA-2 peptide (10 ug/well, preincubated with the monolayer) of adherence of radiolabelled B314 expressing Tp0136 to C6 (rat) glioma cells [1] [%] | reduction by FnbA-2 peptide (10 ug/well, preincubated with the monolayer) of adherence of radiolabelled B314 expressing Tp0136 to HEK293 cells [1] [%] | average percent binding of radiolabelled B314 expressing Tp0136 to Vero cells [2] [%]
B1 | 25.3 | 18.8 | 6
B2 | 27.7 | 26.3 | 8
